Assay: yeast display, Sf9 membrane polyspecificity reagent, FACS + sequencing; frameworks hold sequencing errors
Procedure, shortened: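 Polyreactivity labels are assigned by the sorting gate from which each nanobody was recovered. The gates were low and high (top ~1%), set on anti-HA fluorescence for expression and streptavidin fluorescence for reagent binding. Before sorting, galactose-induced (36–48 hours) yeast display cells were stained for 1 hour at 4 °C with 10% biotinylated, detergent-solubilized Sf9 membrane reagent.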

Row | Sequence | polyreactivity (PSR sort gate)
1 | QVQLVESGGGVVQARGSLRLSCAASGRIFDNAMGWYRQAPGKERELVAAISGGSTYYADSVKGRFTISRDNAKNTVYLQMHSLKPEDTAVYYCNTDPLGRTVVYGGDDYWGQGTQVTVSS | low polyreactivity
2 | QVQLVESGGGLVQAGGSLRLSCAASGSTFQYNDMGWYRQAPGKERELVAAISSSGGSTSYADSVKGRFTISRDNAKNTVYLQMNSLKPEDTAVYYCAASYPGYHLYRDDYWGQGTQVTVSS | low polyreactivity
3 | QVQLVESGGGLVQAGGSLRLSCAASGRTFPRNGMGWYRQAPGKERELGAGISSAGSTNYADSVKGRFTISRDNAKNTFYLHMNSLKPEDTAVYYCNAVLRRRWVTFYYWGQGTQVTVSS | high polyreactivity
4 | QVQLVESGGGLVQAGGSLRLSCAASGLTSKFYAMGWYRQAPGKERELVAAISGSGGSTYYADSVKGRFTISRDKAKNTVYLQMNSLKPEDTAVYYCAARYFGLRYYYWGQGTQVTVSS | high polyreactivity
5 | QVQLVESGGGLVQAGGSLRLSCAASGSIYGTNAMGWYRQAPGKERELVSAIDGGSTTYYADSVKGRFTISRDNAKNTVYLQMNSLKPEDTAVYYCAADGTRYLNYEGYAGYEYWGQGTQVTVSS | low polyreactivity
6 | QVQLVESGGGLVQAGGSLRLSCAASGYIFDHYAMGWYRQAPGKEREFVAAISRSAGSTYYADSVKGRFTISRDNAQNTVYLQMNSLKPEDTAVYYCNAVVAVRSWRKYEYWGQGTQVTVSS | high polyreactivity
7 | QVQLVESGGVLVQAGGSLRLSCAASGSIFDSNAMGWYRQAPGKERELVAAISWSGSRTYYADSVKGRFTISRDYAKNTVYLQILSLKPEDTAVYYCAALVRRYGKYDYWGQCTQVTVSS | high polyreactivity
8 | QVQLVESGGGLVQAGGSLRLSCAASGSTITFYTMGWYRQEPGKEREFVADIDDSGGITYYADSVKGRFTISRDNAKNTVYLQMNSLKPEDTAVYSCAAEYWTACYWICVDYWGQGTQVTVSS | high polyreactivity
9 | QVQLVESGRGLVQAGGSLRLSCAASGRIFLYYAMGWYRQAPGKEREFVAAITYIGGSTYYADSVKGRFTISRDNAKNTVYLQMNSLKPEDTAVYWGQGTQVTVSS | low polyreactivity
10 | QVQLVESVGGLVQAGGSLRLSCAASGRTFLNYAMGWYRQAPGKEREFVAAITWRVGTTYYADSVKGRFTISRDNAKNTVYLQMNSLKPEDTAVYYCNAVTARQSSQGEMDYWGQGTQVTVSS | high polyreactivity
11 | QVQLVESGGGLVQAGGSLRLSCAASGFIFQKYAMGWYRQAPGKERELVAAIRYDGGSTYYADSVKGRFTISRDNAKNTVYLQMNSLKPEDTAVYYCAAYGPRFLIYPPYRYNYWGQGTQVTVSS | high polyreactivity
12 | QVQLVESGGGLVQAGGSLRLSCAASGIFFGGYYLGWYRQAPATEMELVAGIRSGGSTYYADSVKGRFTISRDNAKNTVYLQMNSLKPEDTAVYYCAKPYYWGDYSQSDSDYWGQGTQVTVSS | low polyreactivity
13 | QVQLVESGGGLVQAGGSLRLSCAASGFTFRTYAMGWSRQAPGKERELVAAITVSGGTYYADSVKGRFTISRDNAKNTVYLQMNSLKPEDTAVYYCAAGYWNDFDWGQGTQVTVSS | low polyreactivity
14 | QVQLVESGGGLVQAGGSLRLSCAASGGTFWYYDMGWYRQAPGKERELVAAISSGGNTYYADSVKGRFTISRDNAKNTVYLQMNSLKREDNAVYYWAALPKYGSYYYYPPFDYDYWGHGTQVTVSS | low polyreactivity
15 | QVQLVESGGGLVQAGGSLRLSCAASGSILVSYAMGWYRQAPGKERELVAAITSGGRTKYADSVKGRFTISRDNAKNTVYLQMNSLKPEDTAVYYCAADDPLSYQFDYWGQGTQVTVSS | high polyreactivity
16 | QVQLVESGGGLVQAGGSLRLSCAASGRTFPGNAMGWYRQAPGKERELVAAISYSGGRTYYSDSVKGRFTISRDNAKNTVYLQMNRLKPEDTAVYYCAKSIVQPSVAAYYYWGQGTQVTVSS | high polyreactivity

Row | Sequence | polyreactivity (PSR sort gate)
17 | QVQLVESGGGLVQAGGSLRLSCAASGRIFYTKTMGWYRQAPGNEWELVAAIRSGTRTDYADSVKGRFTISRDNAKKTVYLQMNSLKPYDTAVSYCNKAAGVTGRYYYWGQGTQVTVSS | low polyreactivity
18 | QVQLQESGGGLVQAGGSLRLSCAASGYISYFVGMGWYRQAPGKEREFVASIADGSNTYYADSVKGRFTISRDNAKNTVYLQRNSLKQEDTAVYYCAVEDSWTYRFDYWGQGTQVTVSS | high polyreactivity
19 | QVQLVESGGGLVQAGGSLLLICAASGITFWSYAMGWYRQAPGKERELVAAISSTGSTNYADSVKGRFTISRDNAKNTVYLQMNSLKPEDTAVYYCAAEYTFWWSRTGKYYYWGQGTQVTVSS | high polyreactivity
20 | QVQLVESGGGLVQAGGSLRLSCAASGFIFPWYAMGWYRQAPGKERELVAIISWDTGSTYYADSVKGRFTISRDNAKNTVYLQMNSLKPEDTAVYYCAAQQPYAGLYYWGQGTQVTVSS | low polyreactivity
21 | QVQLVESGGGLVQAGGSLRLSCAASGRTFRRNAMGWYRQAPGKERELVADISNGDSTKYADSVKGRFTISRDNAKNTVYLHMNRLKPVDTAVYYCNAQRYRVVVYNSHGWQTRNYWGQGTQVTVSS | low polyreactivity
22 | QVQLVESGGGLVQAGGSLRLICAASGSTFHAYAMGWYRQAPGKERDLVAAITWSGDSTYADSVKGRFTISRDKAKNTFFLQMNSLKPEETAVYDCACRGFLGHWPRPSYDYWGQGTQVTVSS | low polyreactivity
23 | QVQLVESGGGLVQAGGSLRLSCAASGRIFKYYVMGWYRQAPGKESELVAAISSGSGSTYYADSVKGRFTISRDNAKNTVYLQMNSLKPEDTAVYYCNALSSWRRTYGSRYDYWGQGTQVTVSS | high polyreactivity
24 | QVHLVESGGGLVQAGGSLRLSCAASGRIRFNAMGWYRQAPGKERELVAAITSDGGRTYYADSVKGRFTISRDNAKNTVYLQMNSLKPEDTAVYYCNTDYILWGDYDYWGQGTQVTVSS | low polyreactivity
25 | QVQLVESGGGLVQAGGSLRLSCAASGNTFFPYTMGWYRQAPGKERELVAAITWSGVSTYYADSVKGRFTISRDNAKNTVYLQMNSLKPEDTAVYYCAARGPVYVSYPRQYGYWGQGTQVTVSS | high polyreactivity
26 | QVQLVESGGGLVQAGGSLRLSCAASGRIFRNYAMGWYRQAPGKERELVAAISSGGGSTYYADSVKGRFTISRDNAKNTVYLQMNSLKPEDTAVYYCNARYVYYGKFREYDYWGQGTQVTVSS | high polyreactivity
27 | QVQLVESGRGLVQAGGSLRLSCAASGITLYTNAMGWYRQAPGKEREFVAGISWNGGRTYYADSVKGRFTISRDNAKNTVYLQMNSLKPEDTAVYYCNARFVYRYKYYYWGQGTQVTVSS | high polyreactivity
28 | QVQLVESGGGLVQAVGRLRLSCAASGGIFSINAMGWYRQAPGKERELVAAIRWNSGRTYYADSVKGRFTISRDNAKNTVYLQMNSLKPEDTAVYYCAVRDYISWEDYYWGQGTQVTVSS | high polyreactivity
29 | QVQLVESGGGLVQAGGSLRLTCAASGRIFYNYAMGWYRQAPGKERELLAAISGSGGSTYYADSVKGRFTISRDNAKNSVYLQMNSLKPEDTAVYYCSTSCPQYYSRNFDYWGQGTQVTVSS | low polyreactivity
30 | QVQLVESGGGLVQAGGILRLSCAASGFNFSSYAMAWYRQAPGKERELVAAISGSGGTTYYADSVKGRFTISRDNANNTVYVLMNSLKPEDTAVYYCATRRGLVITKYGYDYWGQGTQVTVSS | high polyreactivity
31 | QDQLVESGGGLVQAGGSLRLSCAAYGSIFYVYAMGWYRQAPGKERELVAAIRRTGSSTYYADSVKGRFTISRDNAKNTVSLQMNSLKPEDTAVYYCAASYWRARAGSYDYWGQGTQVTVSS | high polyreactivity
32 | QVQLVESGGGLVQAGGSLRLSCAASGRIFPDNTMGWSRQAPGKERELVAVITYSGGSTYYADSVKGRFTISRDNAKNTVYLQMNSLKPEDTAVYYCAKTLGSQNYDFDYWGQGTQVTVSS | low polyreactivity

Reference: the nanobody polyreactivity screen of Harvey et al. (2022)
